Test results from IntAct's records for PubMed 31515488.

B1: Syntenin-2 (Homo sapiens), Q9H190 (parent)
chain: MSSLYPSLEDLKVDQAIQAQVRASPKMPALPVQATAISPPPVLYPNLAELENYMGLSLSSQEVQESLLQIPEGDSTAVSGPGPGQMVAPVTGYSLGVRRAEIKPGVREIHLCKDERGKTGLRLRKVDQGLFVQLVQANTPASLVGLRFGDQLLQIDGRDCAGWSSHKAHQVVKKASGDKIVVVVRDRPFQRTVTMHKDSMGHVGFVIKKGKIVSLVKGSSAARNGLLTNHYVCEVDGQNVIGLKDKKIMEILATAGNVVTLTIIPSVIYEHMVKKLPPVLLHHTMDHSIPDA
partner: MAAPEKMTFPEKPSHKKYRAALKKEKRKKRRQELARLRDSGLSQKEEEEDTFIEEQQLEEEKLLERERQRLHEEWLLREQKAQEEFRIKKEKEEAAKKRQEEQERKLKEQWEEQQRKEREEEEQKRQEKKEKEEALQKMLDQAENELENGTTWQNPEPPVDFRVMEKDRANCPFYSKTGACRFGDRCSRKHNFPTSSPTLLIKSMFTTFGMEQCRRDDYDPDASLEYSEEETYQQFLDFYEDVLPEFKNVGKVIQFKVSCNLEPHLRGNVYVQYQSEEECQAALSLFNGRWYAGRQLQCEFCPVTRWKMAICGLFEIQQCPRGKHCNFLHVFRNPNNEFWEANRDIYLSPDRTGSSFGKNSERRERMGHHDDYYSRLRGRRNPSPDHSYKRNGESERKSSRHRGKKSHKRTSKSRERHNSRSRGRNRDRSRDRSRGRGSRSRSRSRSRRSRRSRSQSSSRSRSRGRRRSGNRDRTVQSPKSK
B2: Protein sprouty homolog 1 (Homo sapiens), O43609 (parent)
chain: MDPQNQHGSGSSLVVIQQPSLDSRQRLDYEREIQPTAILSLDQIKAIRGSNEYTEGPSVVKRPAPRTAPRQEKHERTHEIIPINVNNNYEHRHTSHLGHAVLPSNARGPILSRSTSTGSAASSGSNSSASSEQGLLGRSPPTRPVPGHRSERAIRTQPKQLIVDDLKGSLKEDLTQHKFICEQCGKCKCGECTAPRTLPSCLACNRQCLCSAESMVEYGTCMCLVKGIFYHCSNDDEGDSYSDNPCSCSQSHCCSRYLCMGAMSLFLPCLLCYPPAKGCLKLCRRCYDWIHRPGCRCKNSNTVYCKLESCPSRGQGKPS
partner: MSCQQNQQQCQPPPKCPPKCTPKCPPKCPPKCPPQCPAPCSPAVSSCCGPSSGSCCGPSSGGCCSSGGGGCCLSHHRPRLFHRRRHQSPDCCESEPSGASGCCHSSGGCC
B3: Melanoma-associated antigen F1 (Homo sapiens), Q9HAY2 (parent)
chain: MLQTPESRGLPVPQAEGEKDGGHDGETRAPTASQERPKEELGAGREEGAAEPALTRKGARALAAKALARRRAYRRLNRTVAELVQFLLVKDKKKSPITRSEMVKYVIGDLKILFPDIIARAAEHLRYVFGFELKQFDRKHHTYILINKLKPLEEEEEEDLGGDGPRLGLLMMILGLIYMRGNSAREAQVWEMLRRLGVQPSKYHFLFGYPKRLIMEDFVQQRYLSYRRVPHTNPPEYEFSWGPRSNLEISKMEVLGFVAKLHKKEPQHWPVQYREALADEADRARAKARAEASMRARASARAGIHLW
B4: Sperm microtubule associated protein 2 (Homo sapiens), Q9P2T0 (parent)
chain: MGDSRRRSLGNQPSSEAAGRSEREQDGDPRGLQSSVYESRRVTDPERQDLDNAELGPEDPEEELPPEEVAGEEFPETLDPKEALSELERVLDKDLEEDIPEISRLSISQKLPSTTMTKARKRRRRRRLMELAEPKINWQVLKDRKGRCGKGYAWISPCKMSLHFCLCWPSVYWTERFLEDTTLTITVPAVSRRVEELSRPKRFYLEYYNNNRTTPVWPIPRSSLEYRASSRLKELAAPKIRDNFWSMPMSEVSQVSRAAQMAVPSSRILQLSKPKAPATLLEEWDPVPKPKPHVSDHNRLLHLARPKAQSDKCVPDRDPRWEVLDVTKKVVASPRIISLAKPKVRKGLNEGYDRRPLASMSLPPPKASPEKCDQPRPGL
B5: Coiled-coil domain-containing protein 68 (Homo sapiens), Q9H2F9 (parent)
chain: MTTVTVTTEIPPRDKMEDNSALYESTSAHIIEETEYVKKIRTTLQKIRTQMFKDEIRHDSTNHKLDAKHCGNLQQGSDSEMDPSCCSLDLLMKKIKGKDLQLLEMNKENEVLKIKLQASREAGAAALRNVAQRLFENYQTQSEEVRKKQEDSKQLLQVNKLEKEQKLKQHVENLNQVAEKLEEKHSQITELENLVQRMEKEKRTLLERKLSLENKLLQLKSSATYGKSCQDLQREISILQEQISHLQFVIHSQHQNLRSVIQEMEGLKNNLKEQDKRIENLREKVNILEAQNKELKTQVALSSETPRTKVSKAVSTSELKTEGVSPYLMLIRLRK
B6: Angiomotin (Homo sapiens), Q4VCS5 (parent)
chain: MRNSEEQPSGGTTVLQRLLQEQLRYGNPSENRSLLAIHQQATGNGPPFPSGSGNPGPQSDVLSPQDHHQQLVAHAARQEPQGQEIQSENLIMEKQLSPRMQNNEELPTYEEAKVQSQYFRGQQHASVGAAFYVTGVTNQKMRTEGRPSVQRLNPGKMHQDEGLRDLKQGHVRSLSERLMQMSLATSGVKAHPPVTSAPLSPPQPNDLYKNPTSSSEFYKAQGPLPNQHSLKGMEHRGPPPEYPFKGMPPQSVVCKPQEPGHFYSEHRLNQPGRTEGQLMRYQHPPEYGAARPAQDISLPLSARNSQPHSPTSSLTSGGSLPLLQSPPSTRLSPARHPLVPNQGDHSAHLPRPQQHFLPNQAHQGDHYRLSQPGLSQQQQQQQQQHHHHHHHQQQQQQQPQQQPGEAYSAMPRAQPSSASYQPVPADPFAIVSRAQQMVEILSDENRNLRQELEGCYEKVARLQKVETEIQRVSEAYENLVKSSSKREALEKAMRNKLEGEIRRMHDFNRDLRERLETANKQLAEKEYEGSEDTRKTISQLFAKNKESQREKEKLEAELATARSTNEDQRRHIEIRDQALSNAQAKVVKLEEELKKKQVYVDKVEKMQQALVQLQAACEKREQLEHRLRTRLERELESLRIQQRQGNCQPTNVSEYNAAALMELLREKEERILALEADMTKWEQKYLEENVMRHFALDAAATVAAQRDTTVISHSPNTSYDTALEARIQKEEEEILMANKRCLDMEGRIKTLHAQIIEKDAMIKVLQQRSRKEPSKTEQLSCMRPAKSLMSISNAGSGLLSHSSTLTGSPIMEEKRDDKSWKGSLGILLGGDYRAEYVPSTPSPVPPSTPLLSAHSKTGSRDCSTQTERGTESNKTAAVAPISVPAPVAAAATAAAITATAATITTTMVAAAPVAVAAAAAPAAAAAPSPATAAATAAAVSPAAAGQIPAAASVASAAAVAPSAAAAAAVQVAPAAPAPVPAPALVPVPAPAAAQASAPAQTQAPTSAPAVAPTPAPTPTPAVAQAEVPASPATGPGPHRLSIPSLTCNPDKTDGPVFHSNTLERKTPIQILGQEPDAEMVEYLI
partner: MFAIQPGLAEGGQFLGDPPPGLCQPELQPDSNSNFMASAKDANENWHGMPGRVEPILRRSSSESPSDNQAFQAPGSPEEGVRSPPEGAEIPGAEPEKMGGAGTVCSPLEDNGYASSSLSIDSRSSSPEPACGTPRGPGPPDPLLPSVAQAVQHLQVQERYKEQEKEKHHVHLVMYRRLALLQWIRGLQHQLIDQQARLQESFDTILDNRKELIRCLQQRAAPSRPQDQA

Variants of: B1
Conditions: with ZRSR2, Q15696
With V182M the “effect of a mutation on the interaction” value was “with no effect”.
In the case of G242R, the “effect of a mutation on the interaction” value is reported as “disrupting interaction strength”.
In the case of G225R, the “effect of a mutation on the interaction” value is reported as “disrupting interaction strength”.

Variants of: B2
Conditions: with lce2d_human LCE2D
For R296K, the “effect of a mutation on the interaction” value was “with no effect”.
A37T was tested, and the “effect of a mutation on the interaction” value was “with no effect”.
For R24H, the “effect of a mutation on the interaction” value was “with no effect”.

Variants of: B3
Conditions: with mdfi_human MDFI
With K93R the “effect of a mutation on the interaction” value was “with no effect”.

Variants of: B4
Conditions: with fhl3_human FHL3, Q13643
Sequence of fhl3_human FHL3, Q13643 (Q13643 whole entry): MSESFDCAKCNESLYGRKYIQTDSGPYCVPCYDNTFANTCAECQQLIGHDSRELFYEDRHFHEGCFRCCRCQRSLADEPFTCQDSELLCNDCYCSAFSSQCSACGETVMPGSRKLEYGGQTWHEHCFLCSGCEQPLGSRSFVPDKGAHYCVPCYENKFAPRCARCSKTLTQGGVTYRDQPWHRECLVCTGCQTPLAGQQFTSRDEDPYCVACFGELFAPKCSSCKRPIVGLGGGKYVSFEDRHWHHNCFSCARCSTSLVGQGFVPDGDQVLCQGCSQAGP
In the case of R147C, the “effect of a mutation on the interaction” value is reported as “with no effect”.
For R231H, the “effect of a mutation on the interaction” value was “with no effect”.
With R176Q the “effect of a mutation on the interaction” value was “with no effect”.
In the case of R176W, the “effect of a mutation on the interaction” value is reported as “with no effect”.
For T184A, the “effect of a mutation on the interaction” value was “with no effect”.
With P66S the “effect of a mutation on the interaction” value was “with no effect”.
D79G was tested, and the “effect of a mutation on the interaction” value was “with no effect”.
In the case of S39N, the “effect of a mutation on the interaction” value is reported as “with no effect”.
For L131R, the “effect of a mutation on the interaction” value was “with no effect”.
In the case of H297Y, the “effect of a mutation on the interaction” value is reported as “with no effect”.
With M249V the “effect of a mutation on the interaction” value was “with no effect”.

Variants of: B5
Conditions: with tfp11_human TFIP11, Q9UBB9
Sequence of tfp11_human TFIP11, Q9UBB9 (Q9UBB9 whole entry): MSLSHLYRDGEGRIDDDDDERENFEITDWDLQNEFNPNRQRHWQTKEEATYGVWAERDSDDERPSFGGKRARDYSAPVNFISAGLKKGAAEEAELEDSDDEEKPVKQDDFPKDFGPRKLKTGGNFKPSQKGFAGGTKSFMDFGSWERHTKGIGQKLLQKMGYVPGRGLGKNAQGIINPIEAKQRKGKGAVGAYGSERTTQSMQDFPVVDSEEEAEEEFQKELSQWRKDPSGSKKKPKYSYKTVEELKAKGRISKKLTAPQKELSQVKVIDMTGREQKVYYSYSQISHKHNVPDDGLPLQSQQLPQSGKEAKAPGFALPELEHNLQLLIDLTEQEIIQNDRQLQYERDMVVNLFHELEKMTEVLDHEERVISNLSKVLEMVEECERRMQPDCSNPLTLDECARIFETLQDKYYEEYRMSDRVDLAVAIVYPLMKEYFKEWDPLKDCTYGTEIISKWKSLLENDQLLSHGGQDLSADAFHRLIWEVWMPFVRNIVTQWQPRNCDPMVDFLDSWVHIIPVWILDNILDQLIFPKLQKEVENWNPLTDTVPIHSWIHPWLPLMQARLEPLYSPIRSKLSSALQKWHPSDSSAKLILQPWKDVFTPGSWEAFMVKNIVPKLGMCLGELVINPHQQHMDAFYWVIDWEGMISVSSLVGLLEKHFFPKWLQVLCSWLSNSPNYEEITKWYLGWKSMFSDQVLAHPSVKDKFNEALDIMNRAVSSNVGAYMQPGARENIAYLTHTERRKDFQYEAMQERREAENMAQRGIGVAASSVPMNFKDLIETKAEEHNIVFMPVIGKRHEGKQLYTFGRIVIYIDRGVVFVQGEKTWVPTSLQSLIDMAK
For D151G, the “effect of a mutation on the interaction” value was “with no effect”.
For V249A, the “effect of a mutation on the interaction” value was “with no effect”.
For L100V, the “effect of a mutation on the interaction” value was “with no effect”.

Variants of: B6
Conditions: with ca216_human C1orf216, Q8TAB5
For T899A, the “effect of a mutation on the interaction” value was “with no effect”.
